Target: Deinococcus radiodurans DNA polymerase III β subunit (β-clamp), short version of 362 amino acids (Deinococcus radiodurans strain R1)
Assay: SEC; Superdex 75 10/30, purified Drβ-clamp, size and tertiary structure analysis

- stoichiometry N: 2
Substance: Deinococcus radiodurans DNA polymerase III β subunit (β-clamp), short version of 362 amino acids (natural protein)

Reference: publication PMC4350885
